The record followed here is paper PMC3448610.

The target of test [1] is T1, wild-type human Macrophage Migration Inhibitory Factor (human), P14174.
T1 chain: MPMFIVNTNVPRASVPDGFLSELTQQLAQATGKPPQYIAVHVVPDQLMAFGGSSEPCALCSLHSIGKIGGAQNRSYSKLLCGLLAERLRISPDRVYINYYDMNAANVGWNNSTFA
Description: AUC; sedimentation velocity, 50,000 rpm, 20°C, PBS 1X pH 7.4, protein 5-50 µM (15 µM in Figure 3); c(s) analysis with SEDFIT; oligomeric state of the protein with itself. The note with it: remark: other sources report otherwise.

For test [2], the target named is T1, wild-type human Macrophage Migration …. Description: static light scattering (multi-angle); purified MIF 20-30 µM in PBS 1X, room temperature, DAWN HELEOS II with UV and refractive index detectors; oligomeric state of the protein with itself. The note with it: remark: other sources report otherwise.

B1: wild-type human Macrophage Migration Inhibitory Factor, P14174 1-115 (natural protein)
chain: T1 chain
As for B1, the stoichiometry N in test [1] and in test [2] was 3 throughout.
